# Experimental data reported in patent US20240239878A1 (SHANGHAI QILU PHARMACEUTICAL RESEARCH AND DEVELOPMENT CENTRE, published 2024).
# Residue numbers refer to the chain shown, from its start.
# T1: Cynomolgus monkey DLL3 on HEK293 cells (HEK293-cyno DLL3) (Cynomolgus monkey, UniProt Q9NYJ7 27-618 (human entry))
# T1 chain: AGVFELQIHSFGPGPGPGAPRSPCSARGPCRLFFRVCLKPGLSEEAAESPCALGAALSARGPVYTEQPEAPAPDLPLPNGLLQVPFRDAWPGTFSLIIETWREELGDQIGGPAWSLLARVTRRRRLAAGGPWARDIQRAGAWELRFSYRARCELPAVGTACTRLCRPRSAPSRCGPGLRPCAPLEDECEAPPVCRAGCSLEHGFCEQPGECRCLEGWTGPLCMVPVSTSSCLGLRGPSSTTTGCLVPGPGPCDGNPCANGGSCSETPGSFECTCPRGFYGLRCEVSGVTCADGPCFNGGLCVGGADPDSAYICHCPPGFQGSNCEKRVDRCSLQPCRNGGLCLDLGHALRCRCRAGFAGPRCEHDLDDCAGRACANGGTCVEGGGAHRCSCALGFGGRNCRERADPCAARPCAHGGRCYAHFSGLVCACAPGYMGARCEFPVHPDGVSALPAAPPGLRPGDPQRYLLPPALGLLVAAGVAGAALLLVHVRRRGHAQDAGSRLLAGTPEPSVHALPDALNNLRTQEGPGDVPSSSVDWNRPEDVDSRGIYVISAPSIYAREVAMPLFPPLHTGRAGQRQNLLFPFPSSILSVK
# T2: human DLL3 on SHP-77 cells (human, UniProt Q9NYJ7 27-618)
# T2 construct: also called DLL3-expressing cells (SHP-77)
# T2 sequence: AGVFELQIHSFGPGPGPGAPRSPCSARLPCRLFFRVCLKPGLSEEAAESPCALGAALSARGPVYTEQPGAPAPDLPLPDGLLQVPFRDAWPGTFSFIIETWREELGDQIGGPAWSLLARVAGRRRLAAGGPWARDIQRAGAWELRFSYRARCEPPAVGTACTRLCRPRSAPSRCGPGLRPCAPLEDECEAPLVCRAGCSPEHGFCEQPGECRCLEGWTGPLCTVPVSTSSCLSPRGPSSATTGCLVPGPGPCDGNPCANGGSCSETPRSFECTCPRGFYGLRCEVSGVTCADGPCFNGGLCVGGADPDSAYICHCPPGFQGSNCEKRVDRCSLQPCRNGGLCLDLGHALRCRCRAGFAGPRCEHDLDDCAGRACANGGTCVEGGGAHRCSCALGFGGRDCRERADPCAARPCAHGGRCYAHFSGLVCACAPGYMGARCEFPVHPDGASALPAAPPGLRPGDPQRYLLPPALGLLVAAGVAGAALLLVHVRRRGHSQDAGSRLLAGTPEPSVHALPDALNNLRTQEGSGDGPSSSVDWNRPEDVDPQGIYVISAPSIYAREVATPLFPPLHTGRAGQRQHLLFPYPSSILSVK
# B1: 39E2D11-1 mouse hybridoma-derived anti-DLL3 chimeric antibody (antibody, V domains shown)
# VH: QVQLQQSGAELVKPGASVKMSCKASGYTFISYWITWVKQRPGQGLEWIGDIYPGSGSTTNYNEKFKSKATLTVDTSSSTAYMQLSSLTSEDSAVYYCARETTVGGAYAMDYWGQGTSVTVSS
# VL: DIVLTQSPATLSVTPGDSVSLSCRASQSINNNLHWYQQKSHESPRLLIKYVSQSISGIPSRFSGSGSGTDFTLTINSVETEDFGMYFCQQTNSWPLTFGAGTKLELK
# B2: 45E4D7 mouse hybridoma-derived anti-DLL3 chimeric antibody (antibody, V domains shown)
# VH: QVQLQQPGAELVKPGTSVKLSCKASGYTFTSHWITWVKQRPGQGLEWIGDIYPISGSTNNNEKFRNKATLTVDTSSSTAYMQLSSLTSEDSAVYFCAKIITVGGAYVMDYWGQGTSVTVSS
# VL: B1 VL with A9V, I29V, N30R, T74S, M85V, T91S
# B3: 26C4D2 mouse hybridoma-derived anti-DLL3 chimeric antibody (antibody, V domains shown)
# VH: QVQLQQPGAELVKPGASVKLSCKASGYSFTSYWMHWVKQRPGQGLEWIGMIHPTLGDTNYNEKFKSKATLTVDKSSSTAYMELSSLTSEDSAVYYCARLGSLSMMDYWGQGTSVTVSS
# VL: DIQMTQTTSSLSASLGDRVTISCSASQGISNYLNWYQQKPDGTVKLLIYYTSSLHSGVPARFSGSGSGTDYSLTISNLEPEDIAIYYCQQYSKFPYTFGGGTKLEIK
# B4: 46A5A4 mouse hybridoma-derived anti-DLL3 chimeric antibody (antibody, V domains shown)
# VH: QVQLQQSDAELVKPGASVKISCKVSGYTFTDHTIHWMKQRPEQGLEWIGYIYPRDGYTMYNEKFKGKATLTADKSSSTAYMQLNSLTSEDSAVHFCARAFHALDYWGQGTSVTVSS
# VL: B3 VL with I21F, S22T, V44I, A60S, I85T, F94L
# B5: 48B6D7 mouse hybridoma-derived anti-DLL3 chimeric antibody (antibody, V domains shown)
# VH: QVQLQQPGAELVKPGTSVKLSCEASGYTFSNYWMQWVRQRPGQGLEWIGMILPNSDITNYNENFQTKATLTVDKSSSTAYMQLSSLTSEDSAVYYCARQARYSAMDYWGQGTSVTVSS
# VL: B3 VL with A13V, S22N, S53N, A60S, I85T, Q90H
# B6: 27E10C5 mouse hybridoma-derived anti-DLL3 chimeric antibody (antibody, V domains shown)
# VH: QVQLQQSGAELVKPGASVKISCKASGYAFSSQWMNWVKQRPGKGLEWIGQIYPGNGDTNYNGKFKGKATLTADKSSSTAYIQLSSLTSEDSAVYFCARWFAYWGQGTLVTVSA
# VL: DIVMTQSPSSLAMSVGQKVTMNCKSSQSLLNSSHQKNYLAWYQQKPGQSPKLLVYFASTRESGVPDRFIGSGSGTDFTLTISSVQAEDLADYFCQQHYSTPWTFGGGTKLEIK
# B7: H1-45E4D7 mouse hybridoma-derived humanized anti-DLL3 antibody (antibody, V domains shown)
# VH: QVQLVQSGAEVKKPGASVKVSCKASGYTFTSHWITWVRQAPGQGLEWMGDIYPISGSTNNNEKFRNRVTMTRDTSTSTVYMELSSLRSEDTAVYYCAKIITVGGAYVMDYWGQGTLVTVSS
# VL: EIVMTQSPATLSVSPGERATLSCRASQSVRNNLHWYQQKPGQAPRLLIYYVSQSISGIPARFSGSGSGTEFTLTISSLQSEDFAVYYCQQSNSWPLTFGGGTKLEIK
# Target: T1, Cynomolgus monkey DLL3 on HEK293 cells …
# Experiment: flow cytometry, HEK293-cyno DLL3 cells
# Protocol: (§1) SHP-77 and HEK293-cyno DLL3 cells were cultured. The culture medium for SHP-77 cells were RPMI1640+10% FBS, and the culture medium for HEK293 cyno DLL3 cells was DMEM+10% FBS+200 μg/ml Hygromycin. The cells were cultured in a T75 cell culture flask at a 37° C. 5% CO₂ incubator. When using cells, they are washed with sterile DPBS, digested with 0.25% trypsin EDTA for about 5 minutes, and then stopped with a complete medium.
# (§2) The digested cells were centrifuged at 1000 rpm for 5 min at room temperature. The supernatant was discarded and the cells were resuspended in 100 μL of 1% BSA (in PBS). The cells were counted and adjusted to a cell density of 1E6/m. The dilute cells were seeded in a 96-well round-bottom culture plate (corning 3799), and centrifuged at 1500 rpm for 5 min at 4° C. The supernatant was discarded and the cells were stored at 4° C. until use. Antibody samples to be tested were diluted with 1% BSA (in PBS) at a starting concentration of 100 nM, downwards by a 10-fold gradient for 7 concentrations. The cells were resuspended with the diluted antibody at 100 μL/well and incubated for 1 hour at 4° C. The cells were centrifuged at 1500 rpm for 5 minutes at 4° C. and the supernatant was discarded. The cells were resuspended and washed with 160 μL of 1% BSA (in PBS), centrifuged at 1500 rpm for 5 minutes at 4° C. The supernatant was discarded. The secondary antibody (goat anti human IgG Fc PE) was diluted 1:200 with 1% BSA (in PBS) according to the manufacturer's instructions and the cells were resuspended with the diluted secondary antibody. 100 µL/well, and incubated for 0.5 h at 4° C. The cells were centrifuged at 1500 rpm for 5 minutes at 4° C. and the supernatant was discarded. The cells were resuspended and washed with 160 μL of 1% BSA (in PBS), centrifuged at 1500 rpm for 5 minutes at 4° C. The supernatant was discarded. The cells were resuspended in 100 μL of 1% BSA (in PBS), and filtered across a 300 mesh gauze. The mean fluorescence intensity of the PE channels was measured by flow cytometry.
# (§3) The analyzed mean fluorescence intensity was imported into Graphpad to analyze the median-binding concentration (hereinafter referred to as EC50) of antibody and cell and the top mean fluorescence intensity (Top MFI).
EC50,Top MFI,Binder
1.03 nM,445 MFI,B1
0.71 nM,454 MFI,B2
0.43 nM,421 MFI,B3
0.67 nM,475 MFI,B4
0.53 nM,480 MFI,B5
1.39 nM,396 MFI,B6

# Target: T2, human DLL3 on SHP-77 cells
# Experiment: flow cytometry, SHP-77 cells
# Protocol: as §1, §2, §3
EC50,Top MFI,Binder
0.85 nM,999 MFI,B1
0.68 nM,965 MFI,B2
0.6 nM,1050 MFI,B3
1.18 nM,1010 MFI,B4
0.65 nM,990 MFI,B5
1.2 nM,813 MFI,B6

# Target: T2, human DLL3 on SHP-77 cells
# Experiment: flow cytometry, SHP-77 cells
# Remark: another data set of the same source
# Protocol: SHP-77 cells were cultured. The culture medium for SHP-77 cells was RPMI1640+10% FBS. The cells were cultured in a T75 cell culture flask at a 37° C. 5% CO₂ incubator. When using cells, they are washed with sterile DPBS, digested with 0.25% trypsin EDTA for about 5 minutes, and then stopped with a complete medium.
# as §2, with “plated” for “seeded”, “antibody,” for “antibody.”
# as §3
EC50,Top MFI,Binder
5.16 nM,1590 MFI,B7
1.49 nM,1650 MFI,B1
0.894 nM,1560 MFI,B2
1.2 nM,1570 MFI,B4
